The text below walks through data of patent US20230167182A1 (BIOSION, published 2023).

For experiment [1], the target named is T1, human IL6R-Fc protein (human, biotin-labeled in the ELISAs (sites not given)).
T1 construct: In house made; also called biotin-labeled human IL6R-Fc protein
The experiment is described as follows: capture ELISA: antibody captured on anti-IgG F(ab')2 coated plate, then biotin-labeled human IL6R-Fc, streptavidin-HRP. How it is done: For the capture ELISA, 96-well micro plates were coated with 2 μg/ml AffiniPure Goat Anti-Mouse IgG, F(ab′)₂ fragment specific (Jackson ImmunoResearch Laboratories, Inc., Cat #115-005-072) in PBS, 100 μl/well, and incubated for 2 hours at 37° C. Plates were washed once with wash buffer (PBS+0.05% v/v Tween-20, PBST) and then blocked with 200 μl/well blocking buffer (5% w/v non-fatty milk in PBST) overnight at 4° C. […] Plates containing captured anti-IL6R antibodies were incubated with biotin-labeled human IL6R-Fc protein (prepared in house, SEQ ID NO: 43, 39.5 ng/ml in 2.5% w/v non-fatty milk in PBST, 100 μl/well) for 40 minutes at 37° C., washed 4 times, and incubated with streptavidin conjugated HRP (1:10000 dilution in PBST, Jackson ImmunoResearch Laboratories, Inc., Cat #016-030-084, 100 μl/well) for 40 minutes at 37° C. After a final wash, plates were incubated with 100 μl/well ELISA substrate TMB (InnoReagents, Cat #TMB-S-002). The reaction was stopped 3-10 minutes later at room temperature with 50 μl/well 1M H₂SO₄, and the absorbance of each well was read on a microplate reader using dual wavelength mode at 450 nm for TMB and 630 nm as the reference wavelength. Then the OD (450-630) values were plotted against antibody concentration. Data was analyzed using Graphpad Prism software and EC₅₀ values were reported.
Target sequence in this assay (chain, as listed by the source limits assumed): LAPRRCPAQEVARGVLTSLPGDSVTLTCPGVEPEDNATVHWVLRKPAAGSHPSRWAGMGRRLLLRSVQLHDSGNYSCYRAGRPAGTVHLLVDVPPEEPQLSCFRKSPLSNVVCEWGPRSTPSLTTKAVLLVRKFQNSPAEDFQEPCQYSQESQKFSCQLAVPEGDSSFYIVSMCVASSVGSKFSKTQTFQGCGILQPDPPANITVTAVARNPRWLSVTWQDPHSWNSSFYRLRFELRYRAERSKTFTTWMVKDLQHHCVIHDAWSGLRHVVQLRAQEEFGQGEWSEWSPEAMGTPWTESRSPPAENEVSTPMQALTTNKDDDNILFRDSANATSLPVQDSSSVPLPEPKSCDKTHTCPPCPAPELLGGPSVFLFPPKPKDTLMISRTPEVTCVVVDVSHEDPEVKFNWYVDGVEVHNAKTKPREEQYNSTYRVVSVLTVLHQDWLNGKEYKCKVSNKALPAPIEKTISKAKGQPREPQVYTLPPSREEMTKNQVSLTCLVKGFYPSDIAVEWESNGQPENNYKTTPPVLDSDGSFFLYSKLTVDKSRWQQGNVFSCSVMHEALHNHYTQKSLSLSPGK
On the technique in general: In an ELISA, binding on a coated surface is turned into a signal by an enzyme label.

Experiment [2] deals with T2, recombinant human IL6R-his (human, UniProt P08887 20-365).
T2 construct: In house made; the entry includes the C-terminal His tag; also called human IL6R-his protein
T2 sequence: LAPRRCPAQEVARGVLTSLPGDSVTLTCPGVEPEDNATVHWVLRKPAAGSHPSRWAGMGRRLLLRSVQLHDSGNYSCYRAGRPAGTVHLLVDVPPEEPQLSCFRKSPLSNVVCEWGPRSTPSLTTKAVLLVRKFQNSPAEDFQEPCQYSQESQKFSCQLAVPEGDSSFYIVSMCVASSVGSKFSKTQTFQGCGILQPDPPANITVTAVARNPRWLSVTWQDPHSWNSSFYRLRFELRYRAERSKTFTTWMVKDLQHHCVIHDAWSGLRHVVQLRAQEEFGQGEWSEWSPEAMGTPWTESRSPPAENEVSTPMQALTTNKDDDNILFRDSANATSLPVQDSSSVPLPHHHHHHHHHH
Kind of experiment: SPR Biacore T200; mAb captured by anti-mouse IgG on CM5, antigen in flow, 1:1 fit. How it is done:
(§1) Un-reacted moieties on the biosensor surface were blocked with ethanolamine. […] Then, serially diluted recombinant human IL6R-his (in house made, amino acid sequence set forth in SEQ ID NO: 44) or macaca IL6R-his protein (in house made, amino acid sequence set forth in SEQ ID NO: 45), starting at 100 nM with a 2-fold serial dilution in HBS-EP⁺ buffer (provided by Biacore), was flowed onto the chip at a flow rate of 30 μL/min. The antigen-antibody association kinetics was followed for 2 minutes and the dissociation kinetics was followed for 10 minutes. The association and dissociation curves were fit to a 1:1 Langmuir binding model using BIAcore evaluation software.
On the technique in general: SPR reads the build-up and loss of mass on a sensor chip optically.

The target in another experiment is T3, macaca IL6R-his protein (macaca mulatta).
T3 chain: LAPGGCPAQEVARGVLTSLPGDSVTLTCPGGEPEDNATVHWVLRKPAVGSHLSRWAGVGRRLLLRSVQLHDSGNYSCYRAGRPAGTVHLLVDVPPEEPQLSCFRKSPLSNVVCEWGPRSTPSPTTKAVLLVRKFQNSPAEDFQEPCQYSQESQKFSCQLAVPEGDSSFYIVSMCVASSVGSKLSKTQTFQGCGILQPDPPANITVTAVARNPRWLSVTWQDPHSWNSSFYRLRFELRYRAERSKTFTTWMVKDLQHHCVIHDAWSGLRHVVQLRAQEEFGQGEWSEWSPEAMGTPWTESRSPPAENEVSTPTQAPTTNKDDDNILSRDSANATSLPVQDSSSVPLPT
The experiment is described as above. The protocol:
as §1

Experiment [3] deals with T1, human IL6R-Fc protein. Kind of experiment: benchmark blocking ELISA: antibody pre-incubated with biotin-labeled human IL6R-Fc, added to plate-coated Tocilizumab (competitor: Tocilizumab). The protocol: ELISA plates were washed once with wash buffer (PBS+0.05% v/v Tween-20, PBST) and then blocked with 200 μl/well blocking buffer (5% w/v non-fatty milk in PBST) overnight at 4° C.
The next day, the anti-IL6R antibodies of the disclosure or controls were diluted with biotin labeled human IL6R-Fc protein (SEQ ID NO: 43, 13.6 ng/ml in 2.5% w/v non-fatty milk in PBST), starting at 100 nM with a 5-fold serial dilution, and incubated at room temperature for 40 minutes. […] After incubation at 37° C. for 40 minutes, plates were washed 4 times using wash buffer. Then streptavidin conjugated HRP was added, and the plates were incubated for 40 minutes at 37° C. The plates were finally washed using wash buffer, and added with TMB. The reaction was stopped using 1M […], and the absorbance was read on a microplate reader using dual wavelength mode with 450 nm for TMB and 630 nm as the reference wavelength. The OD (450-630) values were plotted against antibody concentration. Data was analyzed using Graphpad Prism software and IC₅₀ values were reported.

Experiment [4] deals with T1, human IL6R-Fc protein. The experiment is described as follows: ligand blocking ELISA: antibody pre-incubated with biotin-labeled human IL6R-Fc, added to plate-coated human IL6 (blocked ligand: human IL6). How it is done: The next day, anti-IL6R antibodies or controls were diluted with biotin labeled human IL6R-Fc protein (prepared in house, SEQ ID NO: 43, 39.5 ng/ml in 2.5% w/v non-fatty milk in PBST), starting at 100 nM with a 4-fold serial dilution, and incubated at room temperature for 40 minutes. […] Plates were washed for 4 times using wash buffer, and added and incubated with 100 μl/well of streptavidin conjugated HRP (1:10000 dilution in PBST buffer, Jackson ImmunoResearch Laboratories, Inc., Cat #016-030-084) for 40 minutes at 37° C. Plates were washed again using wash buffer. Finally, TMB was added and the reaction was stopped using 1M H₂SO₄. The absorbance was read on a microplate reader using dual wavelength mode with 450 nm for TMB and 630 nm as the reference wavelength, and then the OD (450-630) values were plotted against antibody concentration. Data was analyzed using Graphpad Prism software and IC₅₀ values were reported.

B1: mouse anti-IL6R monoclonal antibody 1F7 (antibody, V domains shown)
VH: QVQLQQPGAELVKPGASVKLSCKASDYTFTSYWMHWVKQRPGQGLEWIGEINPSNGRTNYNEKFKNKATLTVDKSSSTAYVQLYSLTSEDSAVYYCARLSIHYVFDYWGQGTTLTVSS
VL: ELVLTQSPTTMAASPGEKITFTCSASSSISSNYLHWYQQKPGFSPKLLISGTSNLASGVPPRFSGSGSGTSYSLTIVTMEAEDVATYYCQQGSGIPFTFGSGTKLEIK
notes: Mouse hybridoma mAb
Turning to B1, the EC50 (as a rule, the midpoint of the concentration-response curve) with human IL6R-Fc protein [1] was 0.0593 nM. Further, in experiment [2], the Kd (usually the concentration at which binding is half-saturated) worked out at 0.537 nM; the koff (as a rule, the rate constant with which the complex falls apart) came to 7.46e-05 s⁻¹; the kon (usually the rate constant with which the complex forms) was 139000 M⁻¹ s⁻¹. Besides, in the experiment with macaca IL6R-his protein, binding was characterised by a dissociation constant (Kd) of 0.523 nM, the koff stood at 6.46e-05 s⁻¹ and the kon amounted to 124000 M⁻¹ s⁻¹.

B2: mouse anti-IL6R monoclonal antibody 1A3 (antibody, V domains shown)
VH: QVQLQQPGAELVKPGASVKLSCKASGYTFTSYWMHWVKQRPAQGLEWIGEINPSNGRTNFNEKFKTKATLTVDKSSNTAYMQLSSLTSEDSAVYSCLRLNTHYVFDYWGQGTTLTVSS
VL: EIVLTQSPTTMAASPGEKITITCSASSSISSNYLHWYQQKPGFSPKLLISRTSNLASGVPTRFSGSGSGTSYSLTIGTMEAGDVATYYCQQGSGIPFTFGSGTKLEIK
notes: Mouse hybridoma mAb purified on Protein A
B2 had an EC50 with human IL6R-Fc protein [1] of 0.073 nM. In experiment [2], the Kd was 0.293 nM, the koff was 4.32e-05 s⁻¹ and the kon was determined as 148000 M⁻¹ s⁻¹. Also, in the experiment with macaca IL6R-his protein, the affinity, expressed as Kd, was 0.328 nM; the off-rate constant (koff) amounted to 4.54e-05 s⁻¹; the kon turned out to be 139000 M⁻¹ s⁻¹.

B3: mouse anti-IL6R monoclonal antibody 1H7 (antibody, V domains shown)
VH: QVQLQQPGTELVKPGASVKLSCKASGYTFTNYWMHWVKQRPGQGLDWIGEINPTNGRTNYNENFKSKATLTVDKSSSTAYMQLSSLTSEDSAVYYCARLNTHYVFDSWGQGTTLTLSS
VL: EIVLTQSPTTLAASPGEKITFTCSVSSSISSNYLHWYQQKPGFSPKLLISRTSTLASGVPARFSGSGSGTSYSLTIGTMEAEDVATYYCQQGSGIPFTFGSGTKLELK
notes: Mouse hybridoma mAb
In the experiment with human IL6R-Fc protein [1], B3 yielded an EC50 of 0.0436 nM. For the same molecule, the IC50 (usually the midpoint of a concentration-inhibition curve) with human IL6R-Fc protein [3] came out at 0.105 nM; with human IL6R-Fc protein [4], 0.601 nM. Also, the dissociation constant (Kd) in experiment [2] was determined as 0.308 nM; with macaca IL6R-his protein it was 0.229 nM. The koff amounted to 4.73e-05 s⁻¹ in experiment [2] and 3.14e-05 s⁻¹ in the experiment with macaca IL6R-his protein. Also, the values for the kon (in experiment [2]; with macaca IL6R-his protein) were 153000 M⁻¹ s⁻¹ and 137000 M⁻¹ s⁻¹, respectively.

B4: mouse anti-IL6R monoclonal antibody 1D4 (antibody, V domains shown)
VH: QVQLQQPGAELVKPGASVKLSCKASGYTFTSYWMHWVKVRPGQGLEWIGEINPTNGRTNYNEDFKSKATLTVNSSSSTAYMQLSSLTSEDSAVYYCARLNTHYVFDYWGQGTTLTVSS
VL: EIVLTQSPTILAASPGEKITFTCSVSSSISSNYLHWYQQKPGFSPKLLIYRTSNLASGVPARFSGSGSGTSYSLTIGTMEAEDVATYYCQQGSGIPFTFGSGTKLEIK
notes: Mouse hybridoma mAb
With B4, the EC50 with human IL6R-Fc protein [1] was 0.0558 nM. For the same molecule, in experiment [2], the Kd was 0.628 nM, the off-rate constant (koff) was determined as 8.64e-05 s⁻¹ and the kon amounted to 138000 M⁻¹ s⁻¹. In the experiment with macaca IL6R-his protein, this molecule came in with a Kd of 0.6 nM, a koff of 7.39e-05 s⁻¹ and a kon of 123000 M⁻¹ s⁻¹.

B5: mouse anti-IL6R monoclonal antibody 3C2 (antibody, V domains shown)
VH: QVQLQQPGTELVKPGASVKLSCKASGYTFTTYWIHWVKQRPGQGLEWIGEINPSNGRTNYNEHFKSKATLTVDKSSSTASMQLSSLTSADSAVYYCARLNTHYVFDSWGQGTTLTVSS
VL: EIVLTQSPTTMAASPGEKITITCSASSSISSNYLHWYQQKPGFSPKLLIYRTSNLASGVPTHFSGSGSGTSYSLTIGTMEAEDVATYYCQQGSGIPFTFGSGTKLEIK
notes: Mouse hybridoma mAb
B5 showed an EC50 with human IL6R-Fc protein [1] of 0.0536 nM. In experiment [2], the Kd amounted to 0.911 nM, the koff was 0.000135 s⁻¹ and the kon was determined as 148000 M⁻¹ s⁻¹. In the experiment with macaca IL6R-his protein, this molecule showed a Kd of 0.977 nM, a koff of 0.000127 s⁻¹ and a kon of 130000 M⁻¹ s⁻¹.

B6: mouse anti-IL6R monoclonal antibody 1B5 (antibody, V domains shown)
VH: QVQLQQPGAELVKPGASVKLSCKASGYTFTSYWMHWVKQRPGQGLEWIGEINPSNGRTNYNENFKSKATLTVDKSSSTAYMQLSSLTSEDSAVYYCARLNTHYVFDYWGQGTTLTVSS
VL: EIVLTQSPTILAASPGEKITFTCSVSSSISSNYLHWYQQKPGFSPKLLIYRTSNLASGVPARFSGSGSGTSYSLTIGTMEAEDVATYYCQQGSGIPFTFGSGTKLEIK
notes: Mouse hybridoma mAb
In the experiment with human IL6R-Fc protein [1], B6 displayed an EC50 of 0.0372 nM. Further, in experiment [2], the dissociation constant (Kd) is 0.476 nM, the koff amounted to 6.7e-05 s⁻¹ and the kon was determined as 141000 M⁻¹ s⁻¹. In the experiment with macaca IL6R-his protein, this molecule had a dissociation constant Kd of 0.609 nM, a koff of 7.86e-05 s⁻¹ and a kon of 129000 M⁻¹ s⁻¹.

B7: mouse anti-IL6R monoclonal antibody 1G1 (antibody, V domains shown)
VH: QVQLQQPGAELVKPGASVKLSCKASGYTFTSYWMHWVKVRPGQGLEWIGEINPTNGRTNYNEDFKSKATLTVESSSSTAYMQFSSLTSEDSAVYYCARLNTHYVFDYWGQGTTLTVSS
VL: EIVLTQSPTILAASPGEKITFTCSVSSSISSNYLHWYQQKPGFSPKLLIYRTSNLASGVPARFSGSGSGTSYSLTIGTMEAEDVATYYCQQGSGIPFTFGSGTKLEIK
notes: Mouse hybridoma mAb
In the experiment with human IL6R-Fc protein [1], B7 displayed an EC50 of 0.085 nM. In experiment [2], the Kd amounted to 0.647 nM, the koff turned out to be 9.09e-05 s⁻¹ and the kon came to 141000 M⁻¹ s⁻¹. For the same molecule, in the experiment with macaca IL6R-his protein, the Kd amounted to 0.736 nM, the koff came to 8.85e-05 s⁻¹ and the kon was 120000 M⁻¹ s⁻¹.

B8: Tocilizumab (antibody, human IgG1, kappa, V domains shown)
VH: QVQLQESGPGLVRPSQTLSLTCTVSGYSITSDHAWSWVRQPPGRGLEWIGYISYSGITTYNPSLKSRVTMLRDTSKNQFSLRLSSVTAADTAVYYCARSLARTTAMDYWGQGSLVTVSS
VL: DIQMTQSPSSLSASVGDRVTITCRASQDISSYLNWYQQKPGKAPKLLIYYTSRLHSGVPSRFSGSGSGTDFTFTISSLQPEDIATYYCQQGNTLPYTFGQGTKVEIKR
notes: In house made; also called benchmark; Actemra
For the molecule B8, the figures for the IC50 with human IL6R-Fc protein [3] and in the experiment with human IL6R-Fc protein [4] were 1.58 nM and 2.54 nM, respectively.
